According to article PMC8501640, “Altered Env conformational dynamics as a mechanism of resistance to peptide-triazole HIV-1 inactivators” (Retrovirology, 2021):

What was measured:
HxBc2 gp120 WT monomer = HxBc2 gp120 WT monomer (Human immunodeficiency virus type 1 group M subtype B, UniProt P04578); assay: Isothermal titration calorimetry, WT gp120; assay type: binding, HIV-1; conditions: 25 °C
Experimental: (§1) Heats were obtained at 25 °C by injection of 8 μL of PT (100 μM) into a sample cell of a VP-ITC containing 1.4 mL recombinant HxBc2 gp120 (6–8 μM). Solid lines represent fits to a single site binding model.
(§2) The resulting heat changes upon injection were integrated over a time range of 240 s, and the obtained values were fit to a standard single site-binding model using Origin® software.

[1] = molecular target: HxBc2 gp120 V255I monomer (Human immunodeficiency virus type 1 group M subtype B, UniProt P04578, V255I); assay: Isothermal titration calorimetry, V255I gp120; assay type: binding, HIV-1
Experimental: as §1, §2

[2] = molecular target: HxBc2 gp120 V255I/S143N monomer (Human immunodeficiency virus type 1 group M subtype B, UniProt P04578, S143N/V255I); assay: Isothermal titration calorimetry, V255I/S143N gp120; assay type: binding, HIV-1; conditions: 25 °C
Experimental: as §1, §2

[3] = molecular target: HIV-1 HxBc2 gp120 WT monomer (Human immunodeficiency virus type 1 group M subtype B, UniProt P04578); assay: Surface plasmon resonance, WT gp120; assay type: binding
Experimental: (§3) SPR experiments were performed on a Biacore 3000 biosensor (Global Cytiva Lifesciences) at 25 °C using PBS-P (10 mM Phosphate, 150 mM NaCl, pH 7.4, 0.005% P-20) as the running buffer. A CM5 sensor chip was docked and derivatized by amine coupling with HIV-1HxBc2 WT and mutant gp120 subunits using freshly prepared 1:1 50 mM NHS (N-hydroxysuccinamide):200 mM EDC (1-ethyl-3-(3-(dimethylamino)propyl) carbodiimide). […] The equilibrium dissociation constant was calculated as KD = k−1/k1.
(§4) Rate constants k1 and k-1 are defined as they are in the 1:1 binding model, while k2 and k-2 are first order rate constants describing isomerization and de-isomerization, respectively. Equations describing the time course of the interactions can be found in Additional file 1: Method S1. For the fit, it was assumed that the states Env·PT and Env·PT^∗ had the same SPR signal. Rate constants were determined using a least-squares gradient-step algorithm coded in Visual Basic and implemented through Microsoft Excel.

[4] = molecular target: HIV-1 HxBc2 gp120 V255I monomer (Human immunodeficiency virus type 1 group M subtype B, UniProt P04578, V255I); assay: Surface plasmon resonance, V255I gp120; assay type: binding
Experimental: as §3, §4

[5] = molecular target: HIV-1 HxBc2 gp120 V255I/S143N monomer (Human immunodeficiency virus type 1 group M subtype B, UniProt P04578, S143N/V255I); assay: Surface plasmon resonance, V255I/S143N gp120; assay type: binding
Experimental: as §3, §4

CEM-GFP cells = assay: WST-1 cytotoxicity assay; assay type: cell-based
Experimental: The cytotoxicity was determined on CEM-GFP cells via a colorimetric assay to measure the relative proliferation rates of cells in culture. […] After 18 h of incubation, the media containing compounds were discarded and treated with 10% (v/v) WST-1 (a tetrazolium salt) in fresh media for one hour at 37 °C. The cell viability was determined by measuring the absorbance at 450 nm using a Tecan Infinite F50 plate reader.
Figure S1. […] Data represent means and standard deviations of three independent experiments performed in triplicate.

BaL.01 viruses = tested on: BaL.01 viruses; set-up: method as in PMID 24330857, PMID 26331669; conditions: ref [16], [21], read-out: EC50 of induced gp120 shedding; cited from earlier work
[6] = molecular target: HIV-1 HxBc2 Env S143N (HIV-1 (HxBc2 strain)) (UniProt P04578)
[7] = molecular target: HIV-1 HxBc2 Env V255T (HIV-1 (HxBc2 strain)) (UniProt P04578)
[8] = molecular target: HIV-1 HxBc2 Env V255T/S143N (HIV-1 (HxBc2 strain)) (UniProt P04578)
[9] = molecular target: HIV-1 HxBc2 gp120 V255I, monomeric (HIV-1 (HxBc2 strain)) (UniProt P04578)
[10] = molecular target: HIV-1 HxBc2 gp120 V255I/S143N, monomeric (HIV-1 (HxBc2 strain)) (UniProt P04578)
[11] = molecular target: HIV-1 NL4-3 Env S143N (HIV-1 (NL4-3 strain))
[12] = molecular target: HIV-1 NL4-3 Env V255I (HIV-1 (NL4-3 strain))
[13] = molecular target: HIV-1 NL4-3 Env V255I/S143N (HIV-1 (NL4-3 strain))
[14] = molecular target: HIV-1 NL4-3 Env V255T (HIV-1 (NL4-3 strain))
[15] = molecular target: HIV-1 NL4-3 Env V255T/S143N (HIV-1 (NL4-3 strain))
[16] = molecular target: HIV-1 HxBc2 gp120, wild type, monomeric (HIV-1 (HxBc2 strain)) (UniProt P04578); assay: ITC
[17] = molecular target: HIV-1 HxBc2 gp120, wild type, monomeric (HIV-1 (HxBc2 strain)) (UniProt P04578); assay: SPR
[18] = molecular target: HIV-1 HxBc2 gp120 V255I, monomeric (HIV-1 (HxBc2 strain)) (UniProt P04578); assay: ITC; VP-ITC, 25 °C, 1 × PBS pH 7.4; 60–100 µM PT titrated in 8 µL steps into 2–8 µM monomeric HxBc2 gp120; single site-binding model
[19] = molecular target: HIV-1 HxBc2 gp120 V255I/S143N, monomeric (HIV-1 (HxBc2 strain)) (UniProt P04578); assay: as above
[20] = molecular target: HIV-1 HxBc2 gp120 V255I, monomeric (HIV-1 (HxBc2 strain)) (UniProt P04578); assay: SPR; Biacore 3000, 25 °C, PBS-P (10 mM phosphate, 150 mM NaCl, pH 7.4, 0.005% P-20); gp120 monomers amine-coupled to CM5 chip (1800–2200 RU), analytes flowed at 50 µL/min; AAR029b and sCD4 fitted to a Langmuir 1:1 model, KR13 to a three-state binding/isomerization model
[21] = molecular target: HIV-1 HxBc2 gp120 V255I/S143N, monomeric (HIV-1 (HxBc2 strain)) (UniProt P04578); assay: as above
[22] = de-isomerization, three-state model
[23] = isomerization, three-state model
[24] = V255I and V255I/S143N vs WT gp120

## CC[C@H](C)[C@H](NC(=O)[C@@H](N)CCCNC(=N)N)C(=O)N[C@@H](CC(N)=O)C(=O)N[C@@H](CC(N)=O)C(=O)N[C@H](C(=O)N1CC(n2cc([C]34[CH]5[CH]6[CH]7[CH]3[Fe]6754389%10[CH]4[CH]3[CH]8[CH]9[CH]4%10)nn2)C[C@H]1C(=O)N[C@@H](Cc1c[nH]c2ccccc12)C(=O)N[C@@H](CO)C(=O)N[C@@H](CCC(=O)O)C(=O)N[C@@H](C)C(=O)N[C@@H](CCSC)C(=O)N[C@@H](CCSC)C(=O)NCCC(=O)N[C@@H](CCC(N)=O)C(=O)NCCC(=O)N[C@@H](CS)C(N)=O)[C@@H](C)CC (stereo partly drawn) [KR13]
HxBc2 gp120 WT monomer
  ITC binding stoichiometry n: 1.1 ± 0.01
  ITC −TΔS: 7.8 ± 3.0 kcal/mol
[1]; V255I gp120 (HxBc2), 25 °C
  ITC binding stoichiometry n: 1.0 ± 0.04
  ITC −TΔS: 2.9 ± 1.5 kcal/mol
[1]; mutant vs wild type gp120, ITC
  absolute impact of V255I substitution on enthalpy (ΔH) and entropy (TΔS): 5 to 7 kcal/mol
[2]
  ITC binding stoichiometry n: 1.1 ± 0.08
  ITC −TΔS: 1.9 ± 0.93 kcal/mol
[3]; PT association
  SPR k1: 2.9 (M^−1 s^−1) × 10^–5
[3]; PT dissociation
  SPR k-1: 9.6 (s^−1) × 10^3
[3]; [22]
  SPR k-2: 0.25 (s^−1) × 10^3
[3]; [23]
  SPR k2: 7.0 (s^−1) × 10^3
[4]; [24]
  disruption of affinity by escape mutations, SPR: four to sixfold
  effect of escape mutations on de-isomerization kinetics, SPR: three to fourfold
[4]; V255I gp120, PT association
  SPR k1: 2.3 (M^−1 s^−1) × 10^–5
[4]; V255I gp120, PT dissociation
  SPR k-1: 14 (s^−1) × 10^3
[4]; V255I gp120, de-isomerization, three-state model
  SPR k-2: 0.72 (s^−1) × 10^3
[4]; V255I gp120, isomerization, three-state model
  SPR k2: 8.4 (s^−1) × 10^3
[5]; PT association
  SPR k1: 2.8 (M^−1 s^−1) × 10^–5
[5]; PT dissociation
  SPR k-1: 18 (s^−1) × 10^3
[5]; [22]
  SPR k-2: 1.0 (s^−1) × 10^3
[5]; [23]
  SPR k2: 9.0 (s^−1) × 10^3
CEM-GFP cells; 18 h
  concentration above which cytotoxicity was noted: above 25 μM
CEM-GFP cells; at a concentration of 125 μM
  cells dying: ~ 30%
BaL.01 viruses
  EC50: 32 nM

## KR13, linear peptide triazole thiol
[6]
  IC50 of inhibition of single-round infection of HOS.T4.X4 cells by HIV-1 pseudotyped with HxBc2 Env (luciferase): 1.4 nM
[7]
  IC50 of inhibition of single-round infection of HOS.T4.X4 cells by HIV-1 pseudotyped with HxBc2 Env (luciferase): 330 nM
[8]
  IC50 of inhibition of single-round infection of HOS.T4.X4 cells by HIV-1 pseudotyped with HxBc2 Env (luciferase): 7100 nM
[9]
  IC50 of inhibition of single-round infection of HOS.T4.X4 cells by HIV-1 pseudotyped with HxBc2 Env (luciferase): 91 nM
[10]
  IC50 of inhibition of single-round infection of HOS.T4.X4 cells by HIV-1 pseudotyped with HxBc2 Env (luciferase): 4600 nM
[11]
  IC50 of inhibition of single-round infection of HOS.T4.X4 cells by HIV-1 pseudotyped with NL4-3 Env (luciferase): 3.5 nM
[12]
  IC50 of inhibition of single-round infection of HOS.T4.X4 cells by HIV-1 pseudotyped with NL4-3 Env (luciferase): 120 nM
[13]
  IC50 of inhibition of single-round infection of HOS.T4.X4 cells by HIV-1 pseudotyped with NL4-3 Env (luciferase): 3700 nM
[14]
  IC50 of inhibition of single-round infection of HOS.T4.X4 cells by HIV-1 pseudotyped with NL4-3 Env (luciferase): 360 nM
[15]
  IC50 of inhibition of single-round infection of HOS.T4.X4 cells by HIV-1 pseudotyped with NL4-3 Env (luciferase): 6200 nM
[16]
  Kd: 16 nM
  dH: -19 kcal/mol
  stoichiometry N: 1.1
[17]
  Kd: 1.1 nM
  k1 (association step of the three-state model): 290000 M⁻¹ s⁻¹
  k2 (isomerization step of the three-state model): 0.007 s⁻¹
  k-1 (dissociation step of the three-state model): 0.0096 s⁻¹
  k-2 (de-isomerization step of the three-state model): 0.00025 s⁻¹
[18]
  dH: -13 kcal/mol
  stoichiometry N: 1
[19]
  dH: -12 kcal/mol
  stoichiometry N: 1.1
[20]
  k1 (association step of the three-state model): 230000 M⁻¹ s⁻¹
  k2 (isomerization step of the three-state model): 0.0084 s⁻¹
  k-1 (dissociation step of the three-state model): 0.014 s⁻¹
  k-2 (de-isomerization step of the three-state model): 0.00072 s⁻¹
[21]
  k1 (association step of the three-state model): 280000 M⁻¹ s⁻¹
  k2 (isomerization step of the three-state model): 0.009 s⁻¹
  k-1 (dissociation step of the three-state model): 0.018 s⁻¹
  k-2 (de-isomerization step of the three-state model): 0.001 s⁻¹
